# Data taken from patent US20180155451A1 (published 2018).
# T1: FcγRIIa R (extracellular domain, C-terminal His tag) (human, UniProt P12318 34-217)
# T1 construct: extracellular domain; also called FcgRIIa R type; 2aR; not shown: His tag attached to the C terminus
# T1 sequence (looked up): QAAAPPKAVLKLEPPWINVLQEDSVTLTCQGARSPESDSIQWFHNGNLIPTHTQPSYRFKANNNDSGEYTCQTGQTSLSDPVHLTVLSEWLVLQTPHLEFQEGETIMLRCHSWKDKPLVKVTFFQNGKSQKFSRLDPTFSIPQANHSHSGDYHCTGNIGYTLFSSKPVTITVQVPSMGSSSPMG
# T2: FcγRIIb (extracellular domain, C-terminal His tag) (human, UniProt P31994 43-217)
# T2 construct: extracellular domain; also called FcgRIIb; 2b; not shown: His tag attached to the C terminus
# T2 sequence (looked up): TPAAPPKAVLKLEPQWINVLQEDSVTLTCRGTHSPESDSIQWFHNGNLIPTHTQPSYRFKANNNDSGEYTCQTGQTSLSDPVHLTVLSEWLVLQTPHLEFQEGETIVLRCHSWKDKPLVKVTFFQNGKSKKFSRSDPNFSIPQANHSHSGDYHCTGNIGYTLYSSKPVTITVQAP
# T3: FcγRIIb extracellular domain with C-terminal His tag (human, UniProt P31994 43-217)
# T3 construct: extracellular domain; also called FcgRIIb; 2b; not shown: His tag at the C terminus
# T3 sequence (looked up): T2 sequence (looked up)
# B1: GpH7-A5/GpH7-B3 variant S337_12R/GpL16-k0 (antibody, human IgG1, kappa)
# heavy 1: not shown
# heavy 2: not shown
# light: DIVMTQSPLSLPVTPGEPASISCQASESLVHSNRNTYLHWYLQKPGQSPQLLIYKVSNRFSGVPDRFSGSGSGTDFTLKISRVEAEDVGVYYCSQNTHVPPTFGQGTKVEIERTVAAPSVFIFPPSDEQLKSGTASVVCLLNNFYPREAKVQWKVDNALQSGNSQESVTEQDSKDSTYSLSSTLTLSKADYEKHKVYACEVTHQGLSSPVTKSFNRGEC
# notes: Heterodimerized anti-glypican-3 IgG1; alteration in only one H chain (GpH7-B3 side); also called He Ab
# B2: GpH7-A5/GpH7-B3 variant T335_12R/GpL16-k0 (antibody, human IgG1, kappa)
# heavy 1: not shown
# heavy 2: not shown
# light: B1 light
# notes: as for B1
# B3: GpH7-A5/GpH7-B3 variant T335_05P/GpL16-k0 (antibody, human IgG1, kappa)
# heavy 1: not shown
# heavy 2: not shown
# light: B1 light
# notes: as for B1
# B4: GpH7-A5/GpH7-B3 variant T335_02A/GpL16-k0 (antibody, human IgG1, kappa)
# heavy 1: not shown
# heavy 2: not shown
# light: B1 light
# notes: as for B1
# B5: GpH7-A5/GpH7-B3 variant T335_06M/GpL16-k0 (antibody, human IgG1, kappa)
# heavy 1: not shown
# heavy 2: not shown
# light: B1 light
# notes: as for B1
# B6: GpH7-A5/GpH7-B3 variant T335_01G/GpL16-k0 (antibody, human IgG1, kappa)
# heavy 1: not shown
# heavy 2: not shown
# light: B1 light
# notes: as for B1
# B7: GpH7-A5/GpH7-B3 variant S337_19Q/GpL16-k0 (antibody, human IgG1, kappa)
# heavy 1: not shown
# heavy 2: not shown
# light: B1 light
# notes: as for B1
# B8: GpH7-A5/GpH7-B3 variant H268_03V/GpL16-k0 (antibody, human IgG1, kappa)
# heavy 1: not shown
# heavy 2: not shown
# light: B1 light
# notes: Heterodimerized anti-glypican-3 IgG1; the substitution stands in the GpH7-B3 chain only; also called He Ab
# B9: GpH7-A5/GpH7-B3 variant H268_15Y/GpL16-k0 (antibody, human IgG1, kappa)
# heavy 1: not shown
# heavy 2: not shown
# light: B1 light
# notes: as for B8
# B10: GpH7-A5/GpH7-B3 variant K326_16H/GpL16-k0 (antibody, human IgG1, kappa)
# heavy 1: not shown
# heavy 2: not shown
# light: B1 light
# notes: as for B8
# B11: GpH7-A5/GpH7-B3 variant K326_20W/GpL16-k0 (antibody, human IgG1, kappa)
# heavy 1: not shown
# heavy 2: not shown
# light: B1 light
# notes: as for B8
# B12: GpH7-A5/GpH7-B3 variant N325_01G/GpL16-k0 (antibody, human IgG1, kappa)
# heavy 1: not shown
# heavy 2: not shown
# light: B1 light
# notes: as for B8
# B13: GpH7-A5/GpH7-B3 variant H268_20W/GpL16-k0 (antibody, human IgG1, kappa)
# heavy 1: not shown
# heavy 2: not shown
# light: B1 light
# notes: as for B8
# B14: GpH7-A5/GpH7-B3 variant H268_05P/GpL16-k0 (antibody, human IgG1, kappa)
# heavy 1: not shown
# heavy 2: not shown
# light: B1 light
# notes: as for B8
# B15: GpH7-A5/GpH7-B3 variant P271_08L/GpL16-k0 (antibody, human IgG1, kappa)
# heavy 1: not shown
# heavy 2: not shown
# light: B1 light
# notes: as for B8
# B16: GpH7-A5/GpH7-B3 variant A327_01G/GpL16-k0 (antibody, human IgG1, kappa)
# heavy 1: not shown
# heavy 2: not shown
# light: B1 light
# notes: as for B8
# B17: GpH7-A5/GpH7-B3 variant H268_01G/GpL16-k0 (antibody, human IgG1, kappa)
# heavy 1: not shown
# heavy 2: not shown
# light: B1 light
# notes: as for B8
# Target: T1, FcγRIIa R (extracellular domain, …)
# Test: SPR (Biacore), antibody captured on antigen-peptide chip, FcγR as analyte; relative binding amount
# Experimental: (§1) The heterodimerized antibodies He Abs in which one of the H chains was introduced with an alteration were assayed for their binding activities to each activating FcγR and inhibitory FcγR according to the method described in Example 4. […] The activating FcγRs in FIGS. 26, 27, 28, and 29 are FcγRIa, FcγRIIa (R), FcγRIIa (H), and FcγRIIIa, respectively.
# (§2) Analysis of interaction between objective antibody and the FcγR was carried out using Biacore T100 (GE Healthcare). HBS-EP+ (GE Healthcare) was used as the running buffer, and the measurement temperature was set to 25° C. Chips produced by immobilizing the antigen peptide by the amine coupling method to a Series S Sencor Chip CM5 (GE Healthcare), or alternatively, chips produced by allowing preliminarily biotinylated antigen peptides to interact with and immobilize onto a Series S Sensor Chip SA (certified) (GE Healthcare) were used. Antibodies of interest were captured onto an antigen peptide-immobilized chip, and allowed to interact to each FcγR diluted with running buffer. To regenerate and repeatedly use the chip, the antibodies captured on the chip were washed off by reacting 10 mM glycine-HCl, pH 1.5.
row,He/Con_2aR,Binder
1,107 % of control (GpH7-A5/GpH7-B3/GpL16-k0 = 100),B1
2,100 % of control (GpH7-A5/GpH7-B3/GpL16-k0 = 100),B2
3,104 % of control (GpH7-A5/GpH7-B3/GpL16-k0 = 100),B3
4,102 % of control (GpH7-A5/GpH7-B3/GpL16-k0 = 100),B4
5,105 % of control (GpH7-A5/GpH7-B3/GpL16-k0 = 100),B5
6,104 % of control (GpH7-A5/GpH7-B3/GpL16-k0 = 100),B6
7,106 % of control (GpH7-A5/GpH7-B3/GpL16-k0 = 100),B7

# Target: T2, FcγRIIb (extracellular domain, …)
# Test: as above
# Experimental: as §1, §2
row,He/Con_2b,Binder
1,99.5 % of control (GpH7-A5/GpH7-B3/GpL16-k0 = 100),B1
2,91.9 % of control (GpH7-A5/GpH7-B3/GpL16-k0 = 100),B2
3,99.9 % of control (GpH7-A5/GpH7-B3/GpL16-k0 = 100),B3
4,94 % of control (GpH7-A5/GpH7-B3/GpL16-k0 = 100),B4
5,99.4 % of control (GpH7-A5/GpH7-B3/GpL16-k0 = 100),B5
6,96.7 % of control (GpH7-A5/GpH7-B3/GpL16-k0 = 100),B6
7,99.7 % of control (GpH7-A5/GpH7-B3/GpL16-k0 = 100),B7

# Target: T4, FcγRIIIa extracellular domain with C-terminal His tag (human, UniProt P08637 17-208)
# T4 construct: extracellular domain; also called FcgRIIIa; 3a; not shown: His tag at the C terminus
# T4 sequence (P08637 17-208): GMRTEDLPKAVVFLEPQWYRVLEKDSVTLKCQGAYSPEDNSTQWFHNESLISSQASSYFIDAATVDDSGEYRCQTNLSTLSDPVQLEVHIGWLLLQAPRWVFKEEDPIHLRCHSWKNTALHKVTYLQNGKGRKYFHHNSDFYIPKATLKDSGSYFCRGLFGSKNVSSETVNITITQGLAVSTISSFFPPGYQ
# Test: SPR (Biacore), antibody captured on antigen peptide chip, FcγR as analyte; relative binding amount
# Experimental: as §2
# (§3) The FcγR-binding activity of each antibody was assessed primarily using as an indicator the FcγR-binding activity and dissociation constant for FcγR.
row,He/Con_3a,Binder
1,92.3 % of GpH7-A5/GpH7-B3/GpL16-k0 (=100),B8
2,97.5 % of GpH7-A5/GpH7-B3/GpL16-k0 (=100),B9
3,96.1 % of GpH7-A5/GpH7-B3/GpL16-k0 (=100),B10
4,84.8 % of GpH7-A5/GpH7-B3/GpL16-k0 (=100),B11
5,28 % of GpH7-A5/GpH7-B3/GpL16-k0 (=100),B12
6,82.8 % of GpH7-A5/GpH7-B3/GpL16-k0 (=100),B13
7,76.4 % of GpH7-A5/GpH7-B3/GpL16-k0 (=100),B14
8,71 % of GpH7-A5/GpH7-B3/GpL16-k0 (=100),B15
9,72.4 % of GpH7-A5/GpH7-B3/GpL16-k0 (=100),B16
10,96.7 % of GpH7-A5/GpH7-B3/GpL16-k0 (=100),B17

# Target: T3, FcγRIIb extracellular domain with …
# Test: as above
# Experimental: as §2, §3
row,He/Con_2b,Binder
1,114 % of GpH7-A5/GpH7-B3/GpL16-k0 (=100),B8
2,106 % of GpH7-A5/GpH7-B3/GpL16-k0 (=100),B9
3,119 % of GpH7-A5/GpH7-B3/GpL16-k0 (=100),B10
4,148 % of GpH7-A5/GpH7-B3/GpL16-k0 (=100),B11
5,101 % of GpH7-A5/GpH7-B3/GpL16-k0 (=100),B12
6,111 % of GpH7-A5/GpH7-B3/GpL16-k0 (=100),B13
7,116 % of GpH7-A5/GpH7-B3/GpL16-k0 (=100),B14
8,103 % of GpH7-A5/GpH7-B3/GpL16-k0 (=100),B15
9,116 % of GpH7-A5/GpH7-B3/GpL16-k0 (=100),B16
10,144 % of GpH7-A5/GpH7-B3/GpL16-k0 (=100),B17
